Measured values as given in the supplement of paper PMC9112550, “Optimization of the antimicrobial peptide Bac7 by deep mutational scanning” (BMC Biology, 2022).

System: Escherichia coli TOP10
Test: shrunken log2 fold change of peptide-encoding DNA abundance (4.5 h post-induction vs induction); higher = less antimicrobial activity (less host growth inhibition)
Conditions: time post-induction: 4.5 h; library: site-saturation at positions 5, 18, 19, 20
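Note: peptides expressed intracellularly from a pBAD plasmid library in pooled LB shake-flask culture, induced with 0.3% L-arabinose, DNA abundance read by NGS, three biological replicates, DESeq2 with apeglm shrinkage.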

## RRIRCRPPRLPRPRPRPTMFPRP
  shrunken log2 fold change: -0.2

## RRIRHRPPRLPRPRPRPADDPRP
  shrunken log2 fold change: 0.083

## RRIRNRPPRLPRPRPRPLWSPRP
  shrunken log2 fold change: -0.0388

## RRIRIRPPRLPRPRPRPMGHPRP
  shrunken log2 fold change: -0.174

## RRIRDRPPRLPRPRPRPTVCPRP
  shrunken log2 fold change: 0.662

## RRIRRRPPRLPRPRPRPFNFPRP
  shrunken log2 fold change: -0.473

## RRIRSRPPRLPRPRPRPNENPRP
  shrunken log2 fold change: -0.118

## RRIRQRPPRLPRPRPRPDMWPRP
  shrunken log2 fold change: 0.0275

## RRIRMRPPRLPRPRPRPSIYPRP
  shrunken log2 fold change: -0.726

## RRIRRRPPRLPRPRPRPIVYPRP
  shrunken log2 fold change: -0.00893

## RRIRFRPPRLPRPRPRPVLTPRP
  shrunken log2 fold change: -0.213

## RRIRYRPPRLPRPRPRPITNPRP
  shrunken log2 fold change: -0.544

## RRIRSRPPRLPRPRPRPGTGPRP
  shrunken log2 fold change: 0.103

## RRIRMRPPRLPRPRPRPTMVPRP
  shrunken log2 fold change: 0.263

## RRIRARPPRLPRPRPRPLVYPRP
  shrunken log2 fold change: -0.372

## RRIRIRPPRLPRPRPRPWNKPRP
  shrunken log2 fold change: -0.0719

## RRIRFRPPRLPRPRPRPTAIPRP
  shrunken log2 fold change: -0.0113

## RRIRQRPPRLPRPRPRPILHPRP
  shrunken log2 fold change: -1.25

## RRIRARPPRLPRPRPRPLRMPRP
  shrunken log2 fold change: 0.655

## RRIRLRPPRLPRPRPRPIWFPRP
  shrunken log2 fold change: 0.0419

## RRIRERPPRLPRPRPRPVLAPRP
  shrunken log2 fold change: 0.252

## RRIRFRPPRLPRPRPRPRAFPRP
  shrunken log2 fold change: 0.0447

## RRIRDRPPRLPRPRPRPAWHPRP
  shrunken log2 fold change: 0.2

## RRIRCRPPRLPRPRPRPGEAPRP
  shrunken log2 fold change: 0.449

## RRIRPRPPRLPRPRPRPVINPRP
  shrunken log2 fold change: -0.626

## RRIRKRPPRLPRPRPRPTQLPRP
  shrunken log2 fold change: 0.65

## RRIRPRPPRLPRPRPRPNSYPRP
  shrunken log2 fold change: -0.464

## RRIRTRPPRLPRPRPRPGVCPRP
  shrunken log2 fold change: 0.442

## RRIRTRPPRLPRPRPRPQGFPRP
  shrunken log2 fold change: 0.0424

## RRIRSRPPRLPRPRPRPYMIPRP
  shrunken log2 fold change: -1.11

## RRIRPRPPRLPRPRPRPFMHPRP
  shrunken log2 fold change: 0.0361

## RRIRYRPPRLPRPRPRPAQNPRP
  shrunken log2 fold change: -0.0465

## RRIRGRPPRLPRPRPRPGEDPRP
  shrunken log2 fold change: 0.872

## RRIRMRPPRLPRPRPRPMDHPRP
  shrunken log2 fold change: -0.00783

## RRIRQRPPRLPRPRPRPREDPRP
  shrunken log2 fold change: 0.242

## RRIRPRPPRLPRPRPRPARVPRP
  shrunken log2 fold change: 0.295

## RRIRIRPPRLPRPRPRPERFPRP
  shrunken log2 fold change: -0.0158

## RRIRLRPPRLPRPRPRPYQKPRP
  shrunken log2 fold change: 0.00934

## RRIRMRPPRLPRPRPRPKDYPRP
  shrunken log2 fold change: 0.224

## RRIRARPPRLPRPRPRPREHPRP
  shrunken log2 fold change: 0.376

## RRIRYRPPRLPRPRPRPTYDPRP
  shrunken log2 fold change: -0.73

## RRIRYRPPRLPRPRPRPVAVPRP
  shrunken log2 fold change: 3.17

## RRIRYRPPRLPRPRPRPNAQPRP
  shrunken log2 fold change: -0.0122

## RRIRWRPPRLPRPRPRPPFQPRP
  shrunken log2 fold change: 0.248

## RRIRLRPPRLPRPRPRPCCIPRP
  shrunken log2 fold change: -0.0547

## RRIRQRPPRLPRPRPRPSTIPRP
  shrunken log2 fold change: -0.0567

## RRIRHRPPRLPRPRPRPVKRPRP
  shrunken log2 fold change: -0.226

## RRIRVRPPRLPRPRPRPNVWPRP
  shrunken log2 fold change: 0.0782

## RRIRQRPPRLPRPRPRPTCGPRP
  shrunken log2 fold change: 0.285

## RRIRQRPPRLPRPRPRPDSPPRP
  shrunken log2 fold change: 0.0174

## RRIRVRPPRLPRPRPRPCAQPRP
  shrunken log2 fold change: -0.186

## RRIRMRPPRLPRPRPRPQSQPRP
  shrunken log2 fold change: 0.226

## RRIRVRPPRLPRPRPRPAEYPRP
  shrunken log2 fold change: -0.124

## RRIRWRPPRLPRPRPRPHVFPRP
  shrunken log2 fold change: -0.154

## RRIRFRPPRLPRPRPRPMVNPRP
  shrunken log2 fold change: -0.171

## RRIRVRPPRLPRPRPRPNYRPRP
  shrunken log2 fold change: 0.0968

## RRIRVRPPRLPRPRPRPLAEPRP
  shrunken log2 fold change: 0.433

## RRIRNRPPRLPRPRPRPVHEPRP
  shrunken log2 fold change: -0.00149

## RRIRARPPRLPRPRPRPQWMPRP
  shrunken log2 fold change: 0.0371

## RRIRIRPPRLPRPRPRPPCQPRP
  shrunken log2 fold change: 0.0801

## RRIRARPPRLPRPRPRPCWSPRP
  shrunken log2 fold change: -0.142

## RRIRVRPPRLPRPRPRPKSKPRP
  shrunken log2 fold change: -0.117

## RRIRQRPPRLPRPRPRPHFEPRP
  shrunken log2 fold change: 0.154

## RRIRMRPPRLPRPRPRPQMPPRP
  shrunken log2 fold change: 0.0529

## RRIRIRPPRLPRPRPRPSWKPRP
  shrunken log2 fold change: -0.242

## RRIRERPPRLPRPRPRPCWFPRP
  shrunken log2 fold change: -0.0254

## RRIRNRPPRLPRPRPRPGPFPRP
  shrunken log2 fold change: 0.00962

## RRIRIRPPRLPRPRPRPIVKPRP
  shrunken log2 fold change: -0.0118

## RRIRMRPPRLPRPRPRPKWGPRP
  shrunken log2 fold change: 0.729

## RRIRLRPPRLPRPRPRPAWIPRP
  shrunken log2 fold change: 0.0321

## RRIRGRPPRLPRPRPRPHCHPRP
  shrunken log2 fold change: 0.284

## RRIRQRPPRLPRPRPRPTLRPRP
  shrunken log2 fold change: -0.0246

## RRIRCRPPRLPRPRPRPNVMPRP
  shrunken log2 fold change: -0.337

## RRIRWRPPRLPRPRPRPACQPRP
  shrunken log2 fold change: 0.015

## RRIRWRPPRLPRPRPRPSYPPRP
  shrunken log2 fold change: -0.254

## RRIRYRPPRLPRPRPRPKGNPRP
  shrunken log2 fold change: -0.423

## RRIRQRPPRLPRPRPRPACYPRP
  shrunken log2 fold change: -0.18

## RRIRTRPPRLPRPRPRPSDPPRP
  shrunken log2 fold change: -0.429

## RRIRLRPPRLPRPRPRPSKTPRP
  shrunken log2 fold change: -0.258

## RRIRNRPPRLPRPRPRPTWNPRP
  shrunken log2 fold change: -0.0528

## RRIRQRPPRLPRPRPRPTSVPRP
  shrunken log2 fold change: 0.0377

## RRIRGRPPRLPRPRPRPYQTPRP
  shrunken log2 fold change: 0.0825

## RRIRPRPPRLPRPRPRPKMDPRP
  shrunken log2 fold change: 0.0116

## RRIRPRPPRLPRPRPRPGTFPRP
  shrunken log2 fold change: -0.226

## RRIRRRPPRLPRPRPRPLYTPRP
  shrunken log2 fold change: -0.132

## RRIRIRPPRLPRPRPRPHYMPRP
  shrunken log2 fold change: -0.943

## RRIRFRPPRLPRPRPRPRIAPRP
  shrunken log2 fold change: 0.214

## RRIRERPPRLPRPRPRPHYDPRP
  shrunken log2 fold change: -0.963

## RRIRVRPPRLPRPRPRPIKYPRP
  shrunken log2 fold change: -0.169

## RRIRLRPPRLPRPRPRPMYVPRP
  shrunken log2 fold change: -0.199

## RRIRTRPPRLPRPRPRPNVVPRP
  shrunken log2 fold change: -0.0363

## RRIRIRPPRLPRPRPRPKAVPRP
  shrunken log2 fold change: -0.00677

## RRIRSRPPRLPRPRPRPSKCPRP
  shrunken log2 fold change: -0.0382

## RRIRSRPPRLPRPRPRPTMLPRP
  shrunken log2 fold change: -0.119

## RRIRTRPPRLPRPRPRPIVPPRP
  shrunken log2 fold change: -0.229

## RRIRHRPPRLPRPRPRPQFTPRP
  shrunken log2 fold change: -0.182

## RRIRVRPPRLPRPRPRPLNAPRP
  shrunken log2 fold change: -0.331

## RRIRKRPPRLPRPRPRPWTGPRP
  shrunken log2 fold change: -0.0587

## RRIRARPPRLPRPRPRPSDCPRP
  shrunken log2 fold change: -0.164

## RRIRWRPPRLPRPRPRPEVRPRP
  shrunken log2 fold change: 0.495

## RRIRERPPRLPRPRPRPQPPPRP
  shrunken log2 fold change: 0.104

## RRIRHRPPRLPRPRPRPQELPRP
  shrunken log2 fold change: -0.122

## RRIRERPPRLPRPRPRPGMLPRP
  shrunken log2 fold change: -0.0705

## RRIRNRPPRLPRPRPRPYHAPRP
  shrunken log2 fold change: -0.0081

## RRIRSRPPRLPRPRPRPPCLPRP
  shrunken log2 fold change: -0.105

## RRIRFRPPRLPRPRPRPGCWPRP
  shrunken log2 fold change: 0.524

## RRIRQRPPRLPRPRPRPWIKPRP
  shrunken log2 fold change: -0.0062

## RRIRQRPPRLPRPRPRPQRDPRP
  shrunken log2 fold change: 0.0969

## RRIRSRPPRLPRPRPRPKCGPRP
  shrunken log2 fold change: 0.397

## RRIRVRPPRLPRPRPRPTHTPRP
  shrunken log2 fold change: 0.0927

## RRIRHRPPRLPRPRPRPKAQPRP
  shrunken log2 fold change: 0.0148

## RRIRKRPPRLPRPRPRPSTDPRP
  shrunken log2 fold change: -0.135

## RRIRFRPPRLPRPRPRPSNKPRP
  shrunken log2 fold change: -0.0849

## RRIRKRPPRLPRPRPRPQYNPRP
  shrunken log2 fold change: -0.67

## RRIRDRPPRLPRPRPRPLVTPRP
  shrunken log2 fold change: 0.486

## RRIRLRPPRLPRPRPRPPIRPRP
  shrunken log2 fold change: 0.296

## RRIRPRPPRLPRPRPRPETYPRP
  shrunken log2 fold change: -0.0102

## RRIRFRPPRLPRPRPRPPGPPRP
  shrunken log2 fold change: 0.897

## RRIRHRPPRLPRPRPRPGIRPRP
  shrunken log2 fold change: -0.00441

## RRIRPRPPRLPRPRPRPHTGPRP
  shrunken log2 fold change: -0.0698

## RRIRLRPPRLPRPRPRPGIIPRP
  shrunken log2 fold change: -0.116

## RRIRDRPPRLPRPRPRPIFLPRP
  shrunken log2 fold change: -0.205

## RRIRGRPPRLPRPRPRPLDWPRP
  shrunken log2 fold change: 1.07

## RRIRFRPPRLPRPRPRPVATPRP
  shrunken log2 fold change: 0.547

## RRIRWRPPRLPRPRPRPEQNPRP
  shrunken log2 fold change: 0.117

## RRIRKRPPRLPRPRPRPQNPPRP
  shrunken log2 fold change: 0.0671

## RRIRIRPPRLPRPRPRPCNYPRP
  shrunken log2 fold change: -0.103

## RRIRQRPPRLPRPRPRPEYMPRP
  shrunken log2 fold change: -0.0613

## RRIRVRPPRLPRPRPRPNRAPRP
  shrunken log2 fold change: 0.202

## RRIRHRPPRLPRPRPRPNYAPRP
  shrunken log2 fold change: 0.0414

## RRIRQRPPRLPRPRPRPCMWPRP
  shrunken log2 fold change: -0.148

## RRIRRRPPRLPRPRPRPYTWPRP
  shrunken log2 fold change: -0.299

## RRIRRRPPRLPRPRPRPISYPRP
  shrunken log2 fold change: 0.0496

## RRIRSRPPRLPRPRPRPSFWPRP
  shrunken log2 fold change: 0.079

## RRIRVRPPRLPRPRPRPTCAPRP
  shrunken log2 fold change: 0.579

## RRIRYRPPRLPRPRPRPEFSPRP
  shrunken log2 fold change: -0.307

## RRIRPRPPRLPRPRPRPGCFPRP
  shrunken log2 fold change: 0.158

## RRIRIRPPRLPRPRPRPTWRPRP
  shrunken log2 fold change: 0.274

## RRIRYRPPRLPRPRPRPKISPRP
  shrunken log2 fold change: -0.134

## RRIRFRPPRLPRPRPRPNMDPRP
  shrunken log2 fold change: 1.48

## RRIRERPPRLPRPRPRPPCEPRP
  shrunken log2 fold change: -0.075

## RRIRARPPRLPRPRPRPCMNPRP
  shrunken log2 fold change: -0.0756

## RRIRRRPPRLPRPRPRPVMLPRP
  shrunken log2 fold change: -0.0342

## RRIRNRPPRLPRPRPRPDYCPRP
  shrunken log2 fold change: -0.00677

## RRIRNRPPRLPRPRPRPGDRPRP
  shrunken log2 fold change: 0.0819

## RRIRDRPPRLPRPRPRPPYNPRP
  shrunken log2 fold change: -0.395

## RRIRVRPPRLPRPRPRPPPYPRP
  shrunken log2 fold change: 0.233

## RRIRCRPPRLPRPRPRPKPHPRP
  shrunken log2 fold change: 0.398

## RRIRARPPRLPRPRPRPMRVPRP
  shrunken log2 fold change: 0.789

## RRIRPRPPRLPRPRPRPYVWPRP
  shrunken log2 fold change: -0.365
